Data as given in publication PMC4714923 (Biochemistry, 2015).
Where no end group is shown, it is not given here. 5‑Fam = 5-carboxyfluorescein; Ahx = NCCCCCC(=O)O

T1: Human FKBP52 (52-kDa FK506-binding protein) (human, UniProt Q02790 1-459)
T1 sequence (looked up): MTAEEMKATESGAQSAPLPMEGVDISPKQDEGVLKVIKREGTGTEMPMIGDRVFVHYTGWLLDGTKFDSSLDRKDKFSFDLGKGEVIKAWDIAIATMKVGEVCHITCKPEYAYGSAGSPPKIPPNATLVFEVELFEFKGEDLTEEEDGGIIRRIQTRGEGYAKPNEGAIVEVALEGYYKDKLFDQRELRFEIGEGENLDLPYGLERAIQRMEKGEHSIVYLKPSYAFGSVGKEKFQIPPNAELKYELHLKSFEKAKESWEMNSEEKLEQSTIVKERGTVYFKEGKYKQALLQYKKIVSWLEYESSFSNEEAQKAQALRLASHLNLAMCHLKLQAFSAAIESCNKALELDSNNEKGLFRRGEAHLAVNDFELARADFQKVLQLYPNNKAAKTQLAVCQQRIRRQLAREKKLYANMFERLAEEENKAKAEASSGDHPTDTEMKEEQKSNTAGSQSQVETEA

T2: Human FKBP51 (51-kDa FK506-binding protein) (human, UniProt Q13451 1-457)
T2 sequence (looked up): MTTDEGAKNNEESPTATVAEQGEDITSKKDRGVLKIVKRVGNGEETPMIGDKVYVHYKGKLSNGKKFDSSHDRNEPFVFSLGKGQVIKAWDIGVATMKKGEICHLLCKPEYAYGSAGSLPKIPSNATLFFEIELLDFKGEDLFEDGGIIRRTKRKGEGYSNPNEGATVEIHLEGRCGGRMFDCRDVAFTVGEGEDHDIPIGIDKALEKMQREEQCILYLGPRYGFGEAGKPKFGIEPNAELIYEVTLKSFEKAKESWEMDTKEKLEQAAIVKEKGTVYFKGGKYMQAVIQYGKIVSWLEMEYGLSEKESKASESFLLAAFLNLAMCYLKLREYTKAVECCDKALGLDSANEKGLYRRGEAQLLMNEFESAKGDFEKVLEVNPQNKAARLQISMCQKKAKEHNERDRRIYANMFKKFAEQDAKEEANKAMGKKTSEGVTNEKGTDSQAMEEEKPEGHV

B1: Human CHIP (carboxyl terminus of Hsc70 interacting protein) (natural protein, UniProt Q9UNE7 1-303, looked up)
chain: MKGKEEKEGGARLGAGGGSPEKSPSAQELKEQGNRLFVGRKYPEAAACYGRAITRNPLVAVYYTNRALCYLKMQQHEQALADCRRALELDGQSVKAHFFLGQCQLEMESYDEAIANLQRAYSLAKEQRLNFGDDIPSALRIAKKKRWNSIEERRIHQESELHSYLSRLIAAERERELEECQRNHEGDEDDSHVRAQQACIEAKHDKYMADMDELFSQVDEKRKKRDIPDYLCGKISFELMREPCITPSGITYDRKDIEEHLQRVGHFDPVTRSPLTQEQLIPNLAMKEVIDAFISENGWVEDY

How the values were obtained:
Test in all cases: fluorescence polarisation
[1] = biological target: T1, Human FKBP52 (52-kDa FK506-binding …)
Hop K8A = Hop K8A (human, UniProt P31948 1-543, K8A)
[2] = biological target: B1
Hop R77A = Hop R77A (human, UniProt P31948 1-543, R77A)
[3] = biological target: T2, Human FKBP51 (51-kDa FK506-binding …)
[4] = biological target: Human Hop (Hsp70/Hsp90 organizing protein) (human, UniProt P31948 1-543)
[5] = biological target: Human Hsp72 (HSPA1A), full-length (human, UniProt P0DMV8 1-641)
Human Hsp72 (HSPA1A), full-length, sequence (P0DMV8 whole entry): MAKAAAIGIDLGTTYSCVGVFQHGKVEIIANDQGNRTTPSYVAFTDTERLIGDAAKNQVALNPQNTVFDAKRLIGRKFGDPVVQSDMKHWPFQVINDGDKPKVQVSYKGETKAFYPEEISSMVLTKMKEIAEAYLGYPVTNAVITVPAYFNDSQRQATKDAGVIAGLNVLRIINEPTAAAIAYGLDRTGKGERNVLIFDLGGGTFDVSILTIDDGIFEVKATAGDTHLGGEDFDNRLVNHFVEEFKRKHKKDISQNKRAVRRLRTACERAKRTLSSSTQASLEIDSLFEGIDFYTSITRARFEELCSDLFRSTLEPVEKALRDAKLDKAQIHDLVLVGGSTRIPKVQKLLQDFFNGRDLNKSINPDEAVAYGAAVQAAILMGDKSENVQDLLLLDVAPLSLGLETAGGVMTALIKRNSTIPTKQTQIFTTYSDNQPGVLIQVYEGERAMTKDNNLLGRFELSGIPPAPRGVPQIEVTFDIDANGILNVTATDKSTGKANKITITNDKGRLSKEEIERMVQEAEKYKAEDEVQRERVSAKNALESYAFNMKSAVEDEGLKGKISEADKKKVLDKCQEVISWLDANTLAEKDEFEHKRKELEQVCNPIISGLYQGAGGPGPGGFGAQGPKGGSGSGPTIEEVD

Kd [1] | Kd [3] | Binder | other results
> 75 µM |  | {5‑Fam-Ahx}-GSGPTIEEVD [Hsp72 C-terminal tracer (Fam-GSGPTIEEVD)] | Kd (Hop K8A): > 25 µM; Kd [2]: 0.51 µM; Kd (Hop R77A): > 25 µM
> 75 µM | > 75 µM | {5‑Fam-Ahx}-SSGPTIEEVD [Hsc70 C-terminal tracer (Fam-SSGPTIEEVD)] | Kd (Hop K8A): > 25 µM; Kd (Hop R77A): > 25 µM
> 75 µM | > 75 µM | {5‑Fam-Ahx}-GSGPTMEEVD [chimeric mutant Hsp72 tracer (Fam-GSGPTMEEVD)] | 
> 25 µM | > 25 µM | {5‑Fam-Ahx}-DDTSRIEEVD [mutant Hsp90α tracer (Fam-DDTSRIEEVD)] | Kd [4]: > 25 µM
 |  | B1 | binding result [5]: binds
> 25 µM | > 25 µM | {5‑Fam-Ahx}-DDTSRMEKVD [Hsp90α Lys mutant tracer (Fam-DDTSRMEKVD)] | 
 |  | Human DnaJC7 (natural protein, UniProt Q99615 1-494, looked up) MAAAAECDVVMAATEPELLDDQEAKREAETFKEQGNAYYAKKDYNEAYNYYTKAIDMCPKNASYYGNRAATLMMLGRFREALGDAQQSVRLDDSFVRGHLREGKCHLSLGNAMAACRSFQRALELDHKNAQAQQEFKNANAVMEYEKIAETDFEKRDFRKVVFCMDRALEFAPACHRFKILKAECLAMLGRYPEAQSVASDILRMDSTNADALYVRGLCLYYEDCIEKAVQFFVQALRMAPDHEKACIACRNAKALKAKKEDGNKAFKEGNYKLAYELYTEALGIDPNNIKTNAKLYCNRGTVNSKLRKLDDAIEDCTNAVKLDDTYIKAYLRRAQCYMDTEQYEEAVRDYEKVYQTEKTKEHKQLLKNAQLELKKSKRKDYYKILGVDKNASEDEIKKAYRKRALMHHPDRHSGASAEVQKEEEKKFKEVGEAFTILSDPKKKTRYDSGQDLDEEGMNMGDFDPNNIFKAFFGGPGGFSFEASGPGNFFFQFG | binding result [5]: binds
 | 4.63 µM | {5‑Fam-Ahx}-DDTSRMEAVD [Hsp90α Ala mutant tracer (Fam-DDTSRMEAVD)] | 
